Biological target: spike, depending on domain and variant
Assay: ELISA

Sequence of LRRC15-Fc (Q8TF66 22-538): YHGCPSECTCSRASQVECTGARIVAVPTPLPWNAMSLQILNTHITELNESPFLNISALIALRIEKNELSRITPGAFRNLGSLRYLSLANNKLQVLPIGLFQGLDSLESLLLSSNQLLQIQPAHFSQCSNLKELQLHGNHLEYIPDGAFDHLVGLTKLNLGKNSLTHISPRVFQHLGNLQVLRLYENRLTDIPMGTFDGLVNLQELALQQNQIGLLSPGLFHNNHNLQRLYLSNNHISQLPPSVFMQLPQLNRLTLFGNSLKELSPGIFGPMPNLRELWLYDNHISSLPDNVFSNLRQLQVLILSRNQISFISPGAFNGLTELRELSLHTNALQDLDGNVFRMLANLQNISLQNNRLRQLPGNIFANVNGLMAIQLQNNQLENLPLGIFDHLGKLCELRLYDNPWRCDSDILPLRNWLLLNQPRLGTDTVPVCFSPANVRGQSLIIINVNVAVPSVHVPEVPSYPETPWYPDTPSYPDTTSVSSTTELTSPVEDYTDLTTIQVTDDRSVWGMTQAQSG

LRRC15-Fc (from UniProt Q8TF66) (Fc fusion)
Kd: 43 to 148 nM
